Assays:
[1] = molecular target: human TNFR1 (soluble recombinant protein) (human) (UniProt P19438); assay: phage ELISA, plate coated with 1 nM TNFR1, anti-M13-HRP; trypsin 10 µg/ml; phage input 1.41E+09
[2] = molecular target: human TNFR1 (soluble recombinant protein) (human) (UniProt P19438); assay: phage ELISA, plate coated with 1 nM TNFR1, anti-M13-HRP; phage treated 1 h RT with trypsin 1 mg/ml; phage input 4.51E+10
[3] = molecular target: human TNFR1 (soluble recombinant protein) (human) (UniProt P19438); assay: phage ELISA, plate coated with 1 nM TNFR1, anti-M13-HRP; trypsin 0 µg/ml; phage input 7.05E+08
[4] = molecular target: human TNFR1 (soluble recombinant protein) (human) (UniProt P19438); assay: phage ELISA, plate coated with 1 nM TNFR1, anti-M13-HRP; trypsin 0 µg/ml; phage input 5.64E+09
[5] = molecular target: human TNFR1 (soluble recombinant protein) (human) (UniProt P19438); assay: phage ELISA, plate coated with 1 nM TNFR1, anti-M13-HRP; trypsin 100 µg/ml; phage input 4.51E+10
[6] = molecular target: human TNFR1 (soluble recombinant protein) (human) (UniProt P19438); assay: phage ELISA, plate coated with 1 nM TNFR1, anti-M13-HRP; trypsin 1 mg/ml; phage input 1.13E+10
[7] = molecular target: human TNFR1 (soluble recombinant protein) (human) (UniProt P19438); assay: phage ELISA, plate coated with 1 nM TNFR1, anti-M13-HRP; trypsin 0 µg/ml; phage input 1.41E+09
[8] = molecular target: human TNFR1 (soluble recombinant protein) (human) (UniProt P19438); assay: phage ELISA, plate coated with 1 nM TNFR1, anti-M13-HRP; trypsin 100 µg/ml; phage input 2.26E+10
[9] = molecular target: human TNFR1 (soluble recombinant protein) (human) (UniProt P19438); assay: phage ELISA, plate coated with 1 nM TNFR1, anti-M13-HRP; trypsin 1 mg/ml; phage input 2.82E+09
[10] = molecular target: human TNFR1 (soluble recombinant protein) (human) (UniProt P19438); assay: phage ELISA, plate coated with 1 nM TNFR1, anti-M13-HRP; trypsin 0 µg/ml; phage input 1.13E+10
[11] = molecular target: human TNFR1 (soluble recombinant protein) (human) (UniProt P19438); assay: phage ELISA, plate coated with 1 nM TNFR1, anti-M13-HRP; trypsin 0 µg/ml; phage input 3.52E+08
[12] = molecular target: human TNFR1 (soluble recombinant protein) (human) (UniProt P19438); assay: phage ELISA, plate coated with 1 nM TNFR1, anti-M13-HRP; trypsin 0 µg/ml; phage input 2.82E+09
[13] = molecular target: human TNFR1 (soluble recombinant protein) (human) (UniProt P19438); assay: phage ELISA, plate coated with 1 nM TNFR1, anti-M13-HRP; trypsin 10 µg/ml; phage input 2.82E+09
[14] = molecular target: human TNFR1 (soluble recombinant protein) (human) (UniProt P19438); assay: phage ELISA, plate coated with 1 nM TNFR1, anti-M13-HRP; trypsin 10 µg/ml; phage input 7.05E+08
[15] = molecular target: human TNFR1 (soluble recombinant protein) (human) (UniProt P19438); assay: phage ELISA, plate coated with 1 nM TNFR1, anti-M13-HRP; trypsin 10 µg/ml; phage input 2.26E+10
[16] = molecular target: human TNFR1 (soluble recombinant protein) (human) (UniProt P19438); assay: phage ELISA, plate coated with 1 nM TNFR1, anti-M13-HRP; trypsin 1 mg/ml; phage input 7.05E+08
[17] = molecular target: human TNFR1 (soluble recombinant protein) (human) (UniProt P19438); assay: phage ELISA, plate coated with 1 nM TNFR1, anti-M13-HRP; trypsin 100 µg/ml; phage input 2.82E+09
[18] = molecular target: human TNFR1 (soluble recombinant protein) (human) (UniProt P19438); assay: phage ELISA, plate coated with 1 nM TNFR1, anti-M13-HRP; trypsin 10 µg/ml; phage input 1.13E+10
[19] = molecular target: human TNFR1 (soluble recombinant protein) (human) (UniProt P19438); assay: phage ELISA, plate coated with 1 nM TNFR1, anti-M13-HRP; trypsin 10 µg/ml; phage input 3.52E+08
[20] = molecular target: human TNFR1 (soluble recombinant protein) (human) (UniProt P19438); assay: phage ELISA, plate coated with 1 nM TNFR1, anti-M13-HRP; trypsin 0 µg/ml; phage input 4.51E+10
[21] = molecular target: human TNFR1 (soluble recombinant protein) (human) (UniProt P19438); assay: phage ELISA, plate coated with 1 nM TNFR1, anti-M13-HRP; trypsin 100 µg/ml; phage input 5.64E+09
[22] = molecular target: human TNFR1 (soluble recombinant protein) (human) (UniProt P19438); assay: phage ELISA, plate coated with 1 nM TNFR1, anti-M13-HRP; trypsin 10 µg/ml; phage input 5.64E+09
[23] = molecular target: human TNFR1 (soluble recombinant protein) (human) (UniProt P19438); assay: phage ELISA, plate coated with 1 nM TNFR1, anti-M13-HRP; trypsin 1 mg/ml; phage input 2.26E+10
[24] = molecular target: human TNFR1 (soluble recombinant protein) (human) (UniProt P19438); assay: phage ELISA, plate coated with 1 nM TNFR1, anti-M13-HRP; trypsin 1 mg/ml; phage input 5.64E+09
[25] = molecular target: human TNFR1 (soluble recombinant protein) (human) (UniProt P19438); assay: phage ELISA, plate coated with 1 nM TNFR1, anti-M13-HRP; trypsin 10 µg/ml; phage input 4.51E+10
[26] = molecular target: human TNFR1 (soluble recombinant protein) (human) (UniProt P19438); assay: phage ELISA, plate coated with 1 nM TNFR1, anti-M13-HRP; trypsin 100 µg/ml; phage input 1.41E+09
[27] = molecular target: human TNFR1 (soluble recombinant protein) (human) (UniProt P19438); assay: phage ELISA, plate coated with 1 nM TNFR1, anti-M13-HRP; trypsin 1 mg/ml; phage input 1.41E+09
[28] = molecular target: human TNFR1 (soluble recombinant protein) (human) (UniProt P19438); assay: phage ELISA, plate coated with 1 nM TNFR1, anti-M13-HRP; trypsin 1 mg/ml; phage input 3.52E+08
[29] = molecular target: human TNFR1 (soluble recombinant protein) (human) (UniProt P19438); assay: phage ELISA, plate coated with 1 nM TNFR1, anti-M13-HRP; trypsin 100 µg/ml; phage input 1.13E+10
[30] = molecular target: human TNFR1 (soluble recombinant protein) (human) (UniProt P19438); assay: phage ELISA, plate coated with 1 nM TNFR1, anti-M13-HRP; trypsin 0 µg/ml; phage input 2.26E+10
[31] = molecular target: human TNFR1 (soluble recombinant protein) (human) (UniProt P19438); assay: phage ELISA, plate coated with 1 nM TNFR1, anti-M13-HRP; trypsin 100 µg/ml; phage input 7.05E+08
[32] = molecular target: human TNFR1 (soluble recombinant protein) (human) (UniProt P19438); assay: phage ELISA, plate coated with 1 nM TNFR1, anti-M13-HRP; trypsin 100 µg/ml; phage input 3.52E+08

human TNFR1 (soluble recombinant protein) (human), sequence (P19438 41-201 limits assumed): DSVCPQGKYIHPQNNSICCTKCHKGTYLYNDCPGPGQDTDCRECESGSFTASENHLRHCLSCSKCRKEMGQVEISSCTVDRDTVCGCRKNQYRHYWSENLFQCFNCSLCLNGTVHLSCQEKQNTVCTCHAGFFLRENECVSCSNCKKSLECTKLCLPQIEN

Which phage ELISA signal [1] does the source give for DOM1h-131 here?
The phage ELISA signal was 0.409.

And the phage ELISA signal [2]?
The phage ELISA signal was 0.284.

And the phage ELISA signal [3]?
Its phage ELISA signal is 0.705.

What about the phage ELISA signal [4] of the same substance?
The phage ELISA signal was 0.962.

What about the phage ELISA signal [5] of the same substance?
Its phage ELISA signal is 0.418.

What about the phage ELISA signal [6] of the same substance?
The phage ELISA signal was 0.183.

And the phage ELISA signal [7]?
Its phage ELISA signal is 0.85.

What about the phage ELISA signal [8] of the same substance?
Its phage ELISA signal is 0.377.

What about the phage ELISA signal [9] of the same substance?
The phage ELISA signal was 0.114.

What about the phage ELISA signal [10] of the same substance?
The phage ELISA signal was 0.949.

And the phage ELISA signal [11]?
Its phage ELISA signal is 0.577.

What about the phage ELISA signal [12] of the same substance?
Its phage ELISA signal is 0.946.

And the phage ELISA signal [13]?
The phage ELISA signal was 0.573.

And the phage ELISA signal [14]?
The phage ELISA signal was 0.286.

And the phage ELISA signal [15]?
The phage ELISA signal was 0.802.

And the phage ELISA signal [16]?
Its phage ELISA signal is 0.084.

What about the phage ELISA signal [17] of the same substance?
The phage ELISA signal was 0.141.

And the phage ELISA signal [18]?
Its phage ELISA signal is 0.86.

And the phage ELISA signal [19]?
The phage ELISA signal was 0.213.

What about the phage ELISA signal [20] of the same substance?
The phage ELISA signal was 0.916.

What about the phage ELISA signal [21] of the same substance?
The phage ELISA signal was 0.196.

And the phage ELISA signal [22]?
Its phage ELISA signal is 0.695.

What about the phage ELISA signal [23] of the same substance?
Its phage ELISA signal is 0.229.

What about the phage ELISA signal [24] of the same substance?
The phage ELISA signal was 0.133.

What about the phage ELISA signal [25] of the same substance?
Its phage ELISA signal is 0.784.

What about the phage ELISA signal [26] of the same substance?
Its phage ELISA signal is 0.115.

What about the phage ELISA signal [27] of the same substance?
Its phage ELISA signal is 0.089.

And the phage ELISA signal [28]?
Its phage ELISA signal is 0.08.

What about the phage ELISA signal [29] of the same substance?
Its phage ELISA signal is 0.284.

And the phage ELISA signal [30]?
Its phage ELISA signal is 0.944.

And the phage ELISA signal [31]?
The phage ELISA signal was 0.084.

What about the phage ELISA signal [32] of the same substance?
The phage ELISA signal was 0.084.

From patent publication US20100254972A1
